For two molecules, Kd, koff and kon results are on record in patent US20210393777A1 (SHANGHAI JUNSHI BIOSCIENCES, published 2021).

This test has as its target T1, human PCSK9 (human, UniProt Q8NBP7 31-692).
T1 construct: Soluble analyte in the ForteBio assay; also called human proprotein convertase subtilisin/kexin type 9
The test is described as follows: ForteBio BLI, biotinylated antibody on streptavidin probes, PCSK9 in solution. Here is the method:
ForteBio affinity assays were implemented according to the prior art. […] After the buffer exchange, the protein content was measured by the absorbance at 280 nm, and the concentration was adjusted to 2 mg/mL. 2 mg of Sulfo-NHS-Biotin was equilibrated to room temperature and added to […] of ultrapure water to give a 10 mM Biotin stock solution. 1 mL of 2 mg/mL JS002 and evolocumab were transferred to a new EP tube, and 8 μL of biotin stock solution was added according to a ratio of protein:biotin=1:6. The mixture was well mixed and incubated at room temperature for 1-2 h. […] After the buffer exchange, the protein content was measured by the absorbance at 280 nm, and the concentration was adjusted to 1-2 mg/mL. The biotinylated protein was aliquoted in tubes at 0.1 mL per tube, and was stored at −80° C. with no more than 1 freeze-thaw. […] The affinity constant was calculated by the formula=koff/kₒₙ.

A word on the Kd: it is the constant that tells how readily two partners part at equilibrium. What is called koff is a measure of how fast the partners let go of each other. One may read the kon as the second-order rate constant of association. A low value points to slow association.

B1: evolocumab (antibody, V domains shown)
VH: QVQLVQSGAEVKKPGASVKVSCKASGYTLTSYGISWVRQAPGQGLEWMGWVSFYNGNTNYAQKLQGRGTMTTDPSTSTAYMELRSLRSDDTAVYYCARGYGMDVWGQGTTVTVSS
VL: QSALTQPASVSGSPGQSITISCTGTSSDVGGYNSVSWYQQHPGKAPKLMIYEVSNRPSGVSNRFSGSKSGNTASLTISGLQAEDEADYYCNSYTSTSMVFGGGTKLTVL
Take B1: binding was characterised by a dissociation constant (Kd) of 0.651 nM, the koff is 3.21e-05 s⁻¹ and the kon came to 49200 M⁻¹ s⁻¹.

B2: JS002 (antibody, human IgG4 S228P, kappa, V domains shown)
VH: QVQLQESGPGLVKPSQTLSLTCTVSGFSISSYGIHWIRQSPGKGLEWIGVIWRGGITDYNAPFMSRVTISKDNSKNQVSFKLSSVTAADTAVYYCANHRDWGQGTLVTVSS
VL: DIQMTQSPSSLSASVGDRVTITCQASQDINKYIDWYQHKPGKAPKLLIHYASTLQPGVPSRFSGSGSGRDYTFTISSLQPEDIATYYCLQYDDLWTFGQGTKVEIKR
notes: Full-length humanized antibody; In the ForteBio assay it was biotinylated with Sulfo-NHS-Biotin (protein:biotin 1:6) and held on streptavidin probes; Tested from various liquid formulations (no. 20, 28-31); also called recombinant humanized anti-PCSK9 monoclonal antibody; anti-PCSK9 antibody
With B2, the Kd came to 0.0215 nM, the koff came out at 1.3e-06 s⁻¹ and the kon was 60200 M⁻¹ s⁻¹.
